This test concerns the target amyloid-β protein (Aβ) produced from human APP770 bearing the Swedish mutation (APPswe) in rat hippocampal neurons (human). As to the kind of experiment: SDS-PAGE with western blot. In general terms: In western blotting, separated proteins are transferred to a membrane and probed.

The stoichiometry N is a count of units in the complex or per binding partner. “amyloid-β protein (Aβ) produced from human APP770 bearing the Swedish mutation (APPswe) in rat hippocampal neurons (peptide)” came in with a stoichiometry N of 3.

(Values after PMC6443839.)
